These results are taken from the supplement of paper PMC5998384.

Data set [1] concerns HeLa Kyoto. The data set is described as follows: solubility in G1/S (NP-40 vs SDS abundance) (log2 ratio); higher = more soluble. As to conditions: cell cycle stage: G1/S.
For data set [2], the system named is HeLa Kyoto. Briefly: melting temperature (median over replicates), in situ; higher = more thermally stable.
Data set [3] concerns HeLa Kyoto. The data set is described as follows: thermal stability score vs G1/S (z-score of summed log2 fold changes over temperatures); higher = more thermally stable than in G1/S.
The subject of data set [4] is HeLa Kyoto. Briefly: solubility change mitosis vs G1/S (difference of NP-40 vs SDS log2 ratios) (log2 ratio difference); higher = more soluble in mitosis.
Setting [5] is: cell cycle stage: early G1 (4.5 h after nocodazole release).
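Throughout, for melting temperature (median over replicates), in situ: HeLa Kyoto cells synchronized by double thymidine or nocodazole block, proteins quantified by TMT10plex mass spectrometry, three independent biological replicates.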
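Throughout, for solubility change mitosis vs G1/S (difference of NP-40 vs SDS log2 ratios): synchronized HeLa Kyoto cells (double thymidine block for G1/S, nocodazole release for mitosis), protein amounts in NP-40 versus SDS lysates quantified by mass spectrometry, three biological replicates.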
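Throughout, for solubility in G1/S (NP-40 vs SDS abundance): HeLa Kyoto cells arrested at G1/S by double thymidine block, proteins quantified by TMT10plex mass spectrometry in mild NP-40 versus SDS extracts, three biological replicates.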
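Throughout, for thermal stability score vs G1/S (z-score of summed log2 fold changes over temperatures): synchronized HeLa Kyoto cells, proteins quantified by TMT10plex mass spectrometry, three biological replicates, mitosis taken 0.5 h after nocodazole release, G1/S directly after double thymidine block.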

With “MAQCVQSVQELIPDSFVPCVAALCSDEAERLTRLNHLSFAELLKPFSRLTSEVHMRDPNNQLHVIKNLKIAVSNIVTQPPQPGAIRKLLNDVVSGSQPAEGLVANVITAGDYDLNISATTPWFESYRETFLQSMPALDHEFLNHYLACMLVASSSEAEPVEQFSKLSQEQHRIQHNSDYSYPKWFIPNTLKYYVLLHDVSAGDEQRAESIYEEMKQKYGTQGCYLLKINSRTSNRASDEQIPDPWSQYLQKNSIQNQESYEDGPCTITSNKNSDNNLLSLDGLDNEVKDGLPNNFRAHPLQLEQSSDPSNSIDGPDHLRSASSLHETKKGNTGIIHGACLTLTDHDRIRQFIQEFTFRGLLPHIEKTIRQLNDQLISRKGLSRSLFSATKKWFSGSKVPEKSINDLKNTSGLLYPPEAPELQIRKMADLCFLVQHYDLAYSCYHTAKKDFLNDQAMLYAAGALEMAAVSAFLQPGAPRPYPAHYMDTAIQTYRDICKNMVLAERCVLLSAELLKSQSKYSEAAALLIRLTSEDSDLRSALLLEQAAHCFINMKSPMVRKYAFHMILAGHRFSKAGQKKHALRCYCQAMQVYKGKGWSLAEDHINFTIGRQSYTLRQLDNAVSAFRHILINESKQSAAQQGAFLREYLYVYKNVSQLSPDGPLPQLPLPYINSSATRVFFGHDRRPADGEKQAATHVSLDQEYDSESSQQWRELEEQVVSVVNKGVIPSNFHPTQYCLNSYSDNSRFPLAVVEEPITVEVAFRNPLKVLLLLTDLSLLWKFHPKDFSGKDNEEVKQLVTSEPEMIGAEVISEFLINGEESKVARLKLFPHHIGELHILGVVYNLGTIQGSMTVDGIGALPGCHTGKYSLSMSVRGKQDLEIQGPRLNNTKEEKTSVKYGPDRRLDPIITEEMPLLEVFFIHFPTGLLCGEIRKAYVEFVNVSKCPLTGLKVVSKRPEFFTFGGNTAVLTPLSPSASENCSAYKTVVTDATSVCTALISSASSVDFGIGTGSQPEVIPVPLPDTVLLPGASVQLPMWLRGPDEEGVHEINFLFYYESVKKQPKIRHRILRHTAIICTSRSLNVRATVCRSNSLENEEGRGGNMLVFVDVENTNTSEAGVKEFHIVQVSSSSKHWKLQKSVNLSENKDTKLASREKGKFCFKAIRCEKEEAATQSSEKYTFADIIFGNEQIISSASPCADFFYRSLSSELKKPQAHLPVHTEKQSTEDAVRLIQKCSEVDLNIVILWKAYVVEDSKQLILEGQHHVILRTIGKEAFSYPQKQEPPEMELLKFFRPENITVSSRPSVEQLSSLIKTSLHYPESFNHPFHQKSLCLVPVTLLLSNCSKADVDVIVDLRHKTTSPEALEIHGSFTWLGQTQYKLQLKSQEIHSLQLKACFVHTGVYNLGTPRVFAKLSDQVTVFETSQQNSMPALIIISNV [TRAPPC8]”, the “solubility in G1/S (log2)” value in the data set on HeLa Kyoto [1] was -0.261. The values for the melting temperature with HeLa Kyoto [2] (cell cycle stage: G1/S) and in the data set on HeLa Kyoto [2] (cell cycle stage: mitosis) were 51.5 °C and 49.9 °C, respectively. Moreover, the thermal stability score in the data set with HeLa Kyoto [3] (setting [5]) is -0.214; in the data set on HeLa Kyoto [3] (cell cycle stage: mitosis), -0.392. Also, the “solubility change mitosis (log2)” value in the data set with HeLa Kyoto [4] is -0.114.
Turning to “MAQFDTEYQRLEASYSDSPPGEEDLLVHVAEGSKSPWHHIENLDLFFSRVYNLHQKNGFTCMLIGEIFELMQFLFVVAFTTFLVSCVDYDILFANKMVNHSLHPTEPVKVTLPDAFLPAQVCSARIQENGSLITILVIAGVFWIHRLIKFIYNICCYWEIHSFYLHALRIPMSALPYCTWQEVQARIVQTQKEHQICIHKRELTELDIYHRILRFQNYMVALVNKSLLPLRFRLPGLGEAVFFTRGLKYNFELILFWGPGSLFLNEWSLKAEYKRGGQRLELAQRLSNRILWIGIANFLLCPLILIWQILYAFFSYAEVLKREPGALGARCWSLYGRCYLRHFNELEHELQSRLNRGYKPASKYMNCFLSPLLTLLAKNGAFFAGSILAVLIALTIYDEDVLAVEHVLTTVTLLGVTVTVCRSFIPDQHMVFCPEQLLRVILAHIHYMPDHWQGNAHRSQTRDEFAQLFQYKAVFILEELLSPIVTPLILIFCLRPRALEIIDFFRNFTVEVVGVGDTCSFAQMDVRQHGHPQWLSAGQTEASVYQQAEDGKTELSLMHFAITNPGWQPPRESTAFLGFLKEQVQRDGAAASLAQGGLLPENALFTSIQSLQSESEPLSLIANVVAGSSCRGPPLPRDLQGSRHRAEVASALRSFSPLQPGQAPTGRAHSTMTGSGVDARTASSGSSVWEGQLQSLVLSEYASTEMSLHALYMHQLHKQQAQAEPERHVWHRRESDESGESAPDEGGEGARAPQSIPRSASYPCAAPRPGAPETTALHGGFQRRYGGITDPGTVPRVPSHFSRLPLGGWAEDGQSASRHPEPVPEEGSEDELPPQVHKV [ATG9A]”, the “solubility in G1/S (log2)” value with HeLa Kyoto [1] turned out to be 0.0202. Further, the melting temperature in the data set on HeLa Kyoto [2] (cell cycle stage: G1/S) was determined as 52 °C; in the data set on HeLa Kyoto [2] (cell cycle stage: mitosis) it was 51.8 °C. For the same sequence, the thermal stability score in the data set with HeLa Kyoto [3] (setting [5]) is -1.02; with HeLa Kyoto [3] (cell cycle stage: mitosis) it was -0.681. Further, the “solubility change mitosis (log2)” value with HeLa Kyoto [4] is -0.221.
For “MAQKPLRLLACGDVEGKFDILFNRVQAIQKKSGNFDLLLCVGNFFGSTQDAEWEEYKTGIKKAPIQTYVLGANNQETVKYFQDADGCELAENITYLGRKGIFTGSSGLQIVYLSGTESLNEPVPGYSFSPKDVSSLRMMLCTTSQFKGVDILLTSPWPKCVGNFGNSSGEVDTKKCGSALVSSLATGLKPRYHFAALEKTYYERLPYRNHIILQENAQHATRFIALANVGNPEKKKYLYAFSIVPMKLMDAAELVKQPPDVTENPYRKSGQEASIGKQILAPVEESACQFFFDLNEKQGRKRSSTGRDSKSSPHPKQPRKPPQPPGPCWFCLASPEVEKHLVVNIGTHCYLALAKGGLSDDHVLILPIGHYQSVVELSAEVVEEVEKYKATLRRFFKSRGKWCVVFERNYKSHHLQLQVIPVPISCSTTDDIKDAFITQAQEQQIELLEIPEHSDIKQIAQPGAAYFYVELDTGEKLFHRIKKNFPLQFGREVLASEAILNVPDKSDWRQCQISKEDEETLARRFRKDFEPYDFTLDD [CWF19L1]”, the “solubility in G1/S (log2)” value with HeLa Kyoto [1] was 0.0176. Besides, the values for the melting temperature in the data set on HeLa Kyoto [2] (cell cycle stage: G1/S) and in the data set with HeLa Kyoto [2] (cell cycle stage: mitosis) were 50.4 °C and 50.7 °C, respectively. Also, the values for the thermal stability score in the data set with HeLa Kyoto [3] (setting [5]) and in the data set with HeLa Kyoto [3] (cell cycle stage: mitosis) were 0.0624 and 0.97, respectively. Further, the “solubility change mitosis (log2)” value in the data set with HeLa Kyoto [4] is -0.143.
With “MAQQQMTSSQKALMLELKSLQEEPVEGFRITLVDESDLYNWEVAIFGPPNTLYEGGYFKAHIKFPIDYPYSPPTFRFLTKMWHPNIYENGDVCISILHPPVDDPQSGELPSERWNPTQNVRTILLSVISLLNEPNTFSPANVDASVMFRKWRDSKGKDKEYAEIIRKQVSATKAEAEKDGVKVPTTLAEYCIKTKVPSNDNSSDLLYDDLYDDDIDDEDEEEEDADCYDDDDSGNEES [UBE2R2]”, the “solubility in G1/S (log2)” value in the data set on HeLa Kyoto [1] is 0.302. Further, the values for the melting temperature in the data set with HeLa Kyoto [2] (cell cycle stage: G1/S) and with HeLa Kyoto [2] (cell cycle stage: mitosis) were 51.9 °C and 52.9 °C, respectively. The values for the thermal stability score in the data set on HeLa Kyoto [3] (setting [5]) and in the data set with HeLa Kyoto [3] (cell cycle stage: mitosis) were -2.34 and -0.967, respectively. Also, the “solubility change mitosis (log2)” value in the data set on HeLa Kyoto [4] turned out to be 0.134.
Regarding “MAQVLRGTVTDFPGFDERADAETLRKAMKGLGTDEESILTLLTSRSNAQRQEISAAFKTLFGRDLLDDLKSELTGKFEKLIVALMKPSRLYDAYELKHALKGAGTNEKVLTEIIASRTPEELRAIKQVYEEEYGSSLEDDVVGDTSGYYQRMLVVLLQANRDPDAGIDEAQVEQDAQALFQAGELKWGTDEEKFITIFGTRSVSHLRKVFDKYMTISGFQIEETIDRETSGNLEQLLLAVVKSIRSIPAYLAETLYYAMKGAGTDDHTLIRVMVSRSEIDLFNIRKEFRKNFATSLYSMIKGDTSGDYKKALLLLCGEDD [ANXA5]”, the “solubility in G1/S (log2)” value in the data set on HeLa Kyoto [1] is 0.363. Further, the melting temperature in the data set with HeLa Kyoto [2] (cell cycle stage: G1/S) and in the data set with HeLa Kyoto [2] (cell cycle stage: mitosis) was 49.4 °C in each case. The thermal stability score came out at 5.64 in the data set on HeLa Kyoto [3] (setting [5]) and 5.5 with HeLa Kyoto [3] (cell cycle stage: mitosis). Besides, the “solubility change mitosis (log2)” value in the data set with HeLa Kyoto [4] came to 0.0486.
